Data: patent US20040043438A1
Numbering of substitutions follows the chain as printed.

B1: Mutant Bet v 1 (2628) (protein)
chain: GVFNVETETTSVIPAARLFKAFILDGDNLFPKVAPQAISSVENISGNGGPGTIKKISFPEGFPFNYVKDRVDEVDHTNFKYNYSVIEGGPIGDTLESISNEIKIVATPDGGSILKISNKYHTKGDHEVKAEQVEASKEMGETLLRAVESYLLAHSDAYN
B2: Bet v 1 (Asn28Thr, Lys32Gln, Glu45Ser, Pro108Gly) mutant (protein)
chain: B1 chain with V5Y, N28T, K32Q, N65K, S97K, P108G, E134K

What was measured:
[1] = molecular target: serum IgE from a pool of birch allergic patients; experiment: fluid-phase IgE-inhibition assay; competes with biotinylated Bet v 1.2801 for pooled serum IgE
[2] = molecular target: specific IgE bound to the surface of human basophils from birch pollen allergic patients; experiment: cell-based or functional assay
[3] = molecular target: serum IgE from a pool of birch allergic patients; experiment: fluid-phase IgE-inhibition assay; competes with biotinylated Bet v 1 no. 2801 for pooled serum IgE

Binder	factor by which the affinity is lowered against Bet v 1.2801 [1]	histamine release in human basophil: reduction of potency against Bet v 1.2801 [2]	amount to reach 80% inhibition [3]	factor of decrease against recombinant Bet v 1 (at 80% inhibition) [3]	factor of decrease in affinity against recombinant Bet v 1 (at 50% inhibition) [3]
B1	3 to 4 fold	3 to 10 fold			
B2			400 ng	20 fold	5 fold
